The results in this text go back to IntAct's records for PubMed 16864798.

This test addresses plk1_human PLK1 (UniProt P53350).

Sequence of plk1_human PLK1 (P53350 whole entry): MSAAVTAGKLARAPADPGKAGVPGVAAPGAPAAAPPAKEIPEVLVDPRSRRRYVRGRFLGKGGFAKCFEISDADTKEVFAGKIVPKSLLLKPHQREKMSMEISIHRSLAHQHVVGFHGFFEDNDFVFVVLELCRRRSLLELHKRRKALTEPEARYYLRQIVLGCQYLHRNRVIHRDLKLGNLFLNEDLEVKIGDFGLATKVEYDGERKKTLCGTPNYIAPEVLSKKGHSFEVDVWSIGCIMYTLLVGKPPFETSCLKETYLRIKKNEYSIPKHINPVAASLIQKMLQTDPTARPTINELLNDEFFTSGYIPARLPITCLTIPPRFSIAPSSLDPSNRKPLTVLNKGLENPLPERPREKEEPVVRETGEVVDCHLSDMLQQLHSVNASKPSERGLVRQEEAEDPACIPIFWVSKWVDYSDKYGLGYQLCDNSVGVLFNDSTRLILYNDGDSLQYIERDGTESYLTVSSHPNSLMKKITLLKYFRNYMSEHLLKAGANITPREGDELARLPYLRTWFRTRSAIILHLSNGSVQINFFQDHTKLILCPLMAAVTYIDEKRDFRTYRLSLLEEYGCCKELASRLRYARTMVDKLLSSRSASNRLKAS

“RecQ-like DNA helicase BLM (Homo sapiens), P54132 S144A;S304A;S1290A;S1296A”: the “effect of a mutation on the interaction” value is recorded as “disrupting interaction strength”.
